Results published in patent publication US20230220084A1.

Key:
[1] = target: human CLEC12A expressed on cells (human) (UniProt Q5QGZ9); assay: flow cytometry, HL60 cells
[2] = target: human CLEC12A expressed on cells (human) (UniProt Q5QGZ9); assay: flow cytometry, hCLEC12A+Ba/F3 cells
[3] = target: human CLEC12A expressed on cells (human) (UniProt Q5QGZ9); assay: flow cytometry, U937 cells
[4] = target: cynomolgus CLEC12A expressed on RMA cells (cynomolgus monkey); assay: flow cytometry, RMA-cCLEC12A cells
Chain of cynomolgus CLEC12A expressed on RMA cells (cynomolgus monkey) (chain, as listed by the source): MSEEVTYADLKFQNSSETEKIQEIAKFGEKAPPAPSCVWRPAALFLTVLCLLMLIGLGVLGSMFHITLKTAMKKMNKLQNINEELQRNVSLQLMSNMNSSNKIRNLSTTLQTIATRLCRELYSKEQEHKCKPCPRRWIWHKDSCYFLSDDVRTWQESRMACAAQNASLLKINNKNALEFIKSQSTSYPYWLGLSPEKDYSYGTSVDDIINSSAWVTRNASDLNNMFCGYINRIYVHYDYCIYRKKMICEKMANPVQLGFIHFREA

[5] = target: human CLEC12A expressed on cells (human) (UniProt Q5QGZ9); assay: flow cytometry, RMA-hCLEC12A cells
[6] = target: hCLEC12A-His fusion protein (human) (UniProt Q5QGZ9); assay: SPR screening, semi-purified protein
Chain of hCLEC12A-His fusion protein (human) (Q5QGZ9 65-265 limits assumed): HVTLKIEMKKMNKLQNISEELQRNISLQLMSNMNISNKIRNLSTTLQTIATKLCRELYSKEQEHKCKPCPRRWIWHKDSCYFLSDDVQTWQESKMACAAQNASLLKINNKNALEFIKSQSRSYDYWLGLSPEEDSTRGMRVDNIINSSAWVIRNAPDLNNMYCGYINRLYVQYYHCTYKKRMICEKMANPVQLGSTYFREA

[7] = target: human CLEC12A expressed on cells (human) (UniProt Q5QGZ9); assay: flow cytometry on RMA-hCLEC12A cells
[8] = target: hCLEC12A-His fusion protein (human) (UniProt Q5QGZ9); assay: SPR 37 C, hybridoma supernatant
[9] = target: hCLEC12A-His fusion protein (human) (UniProt Q5QGZ9); assay: SPR, analyte glycosylated hCLEC12A
[10] = target: De-sialylated hCLEC12A (human) (UniProt Q5QGZ9); assay: SPR, analyte de-sialylated hCLEC12A
Chain of De-sialylated hCLEC12A (human) (Q5QGZ9 65-265 limits assumed): as above

[11] = target: De-glycosylated hCLEC12A (human) (UniProt Q5QGZ9); assay: SPR, analyte de-glycosylated hCLEC12A
Chain of De-glycosylated hCLEC12A (human) (Q5QGZ9 65-265 limits assumed): as above

Chain of human CLEC12A expressed on cells (human) (Q5QGZ9 whole entry, the tested form may be a part): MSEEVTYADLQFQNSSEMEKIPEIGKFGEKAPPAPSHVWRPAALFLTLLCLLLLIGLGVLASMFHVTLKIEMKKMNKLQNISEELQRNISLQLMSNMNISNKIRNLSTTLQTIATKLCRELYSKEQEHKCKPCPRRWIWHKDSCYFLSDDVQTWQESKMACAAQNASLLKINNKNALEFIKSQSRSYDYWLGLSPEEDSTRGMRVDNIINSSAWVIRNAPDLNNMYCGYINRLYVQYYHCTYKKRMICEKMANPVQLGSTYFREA

EC50 [1] [nM] | EC50 [2] [nM] | Max binding MFI [1] [MFI] | Kd [6] [nM] | koff [6] [s⁻¹] | kon [6] [M⁻¹ s⁻¹] | Max binding MFI [2] [MFI] | Binder | further results
4.2 | 6.13 | – | – | – | – | – | AB0010 (bispecific antibody, part only; not given: constant domains, Fc, unrelated scFv, V domains shown, not shown: another chain or arm of the molecule; a dimerising Fc or GST) VH: QLQLQESGPGLVKPSETLSLTCTVSGFSLTNYGLHWIRQPPGKGLEWIGVIWSGGKTDYNPSLKSRVTISKDTSKNQFSLKLSSVQAADTAVYYCAKYDYDDSLDYWGQGTLVTVSS VL: DIQMTQSPSSLSASVGDRVTITCHASQNINFWLSWYQQKPGKAPKLLIYEASNLHTGVPSRFSGSGSGTRFTLTISSLQPEDIATYYCQQSHSYPLTFGGGTKLEIK | Max MFI [1]: 6060 MFI; Max MFI [2]: 54800 MFI
– | – | – | – | – | – | – | 16B08 hybridoma supernatant antibody (antibody, from a related filing, V domains shown) VH: EVQLQESGPGLVQPSQSLSITCTVSGFSLTNYGLHWVRQSPGKGLEWLGVIWSGGKTDYNTPFKSRLSISKDISKNQVFFKMNSLQPNDTAIYFCAKYDYDDSLDYWGQGTSVTVSS VL: DIQMNQSPSSLSASLGDTIAITCHASQNINFWLSWYQQKPGNIPKLLIYEASNLHTGVPSRFSGSGSGTRFTLTISSLQPEDIATYYCQQSHSYPLTFGQGTKLEIK | Cell Binding MFI [3]: 44.1 MFI; Cell Binding MFI [4]: 1130 MFI; Cell Binding MFI [5]: 819 MFI
0.6 | 0.6 | 420 | 1.73 | 0.00126 | 728000 | 7940 | AB0191 (bispecific antibody, part only; not given: Fc, unrelated binder arm, linkers, not shown: another chain or arm of the molecule; a dimerising Fc or GST; small tags and cut ends) scFv: EVQLVESGGGVVQPGGSLRLSCAASGFTFNSFGMHWVRQAPGKCLEWVAFISSGSTSIYYANTVKGRFTISRDNSKNTLYLQMNSLRAEDTAVYYCARDGYPTGGAMDYWGQGTSVTVSSGGGGSGGGGSGGGGSGGGGSDIQMTQSPSSLSASVGDRVTITCKASQDIYNYLSWFQQKPGKAPKPLIYRANILVSGVPSRFSGSGSGQDYTFTISSLQPEDIATYYCLQFDAFPFTFGCGTKLEIK | –
0.7 | 0.6 | 551 | 1.68 | 0.00129 | 766000 | 10800 | AB0195 (bispecific antibody, part only; not given: Fc and unrelated binding arm, not shown: another chain or arm of the molecule; a dimerising Fc or GST) scFv: EVQLVESGGGVVQPGGSLRLSCAASGFTFNAFGMHWVRQAPGKCLEWVAFISSGSTSIYYANTVKGRFTISRDNSKNTLYLQMNSLRAEDTAVYYCARDGYPTGGAMDYWGQGTSVTVSSGGGGSGGGGSGGGGSGGGGSDIKMTQSPSSLSASVGDRVTITCKASQDIYNYLSWFQQKPGKAPKPLIYRANILVSGVPSRFSGSGSGQDYTLTISSLQPEDIATYYCLQFDAFPFTFGCGTKLEIK | –
0.6 | 0.7 | 503 | 1.26 | 0.00138 | 1.09e+06 | 10200 | AB0192 (bispecific antibody, part only; not given: Fc, unrelated binder arm, linkers, not shown: another chain or arm of the molecule; a dimerising Fc or GST; small tags and cut ends) scFv: EVQLVESGGGVVQPGGSLRLSCAASGFTFNAFGMHWVRQAPGKCLEWVAFISSGSTSIYYANTVKGRFTISRDNSKNTLYLQMNSLRAEDTAVYYCARDGYPTGGAMDYWGQGTSVTVSSGGGGSGGGGSGGGGSGGGGSDIQMTQSPSSLSASVGDRVTITCKASQDIYNYLSWFQQKPGKAPKPLIYRANILVSGVPSRFSGSGSGQDYTFTISSLQPEDIATYYCLQFDAFPFTFGCGTKLEIK | –
– | – | – | 3.22 | 0.0013 | 402000 | – | F3′-1292 (bispecific antibody, part only; not given: Fc and unrelated binding arm, not shown: another chain or arm of the molecule; a dimerising Fc or GST) scFv: QLQLQESGPGLVKPSETLSLTCTVSGFSLTNYGLHWIRQPPGKCLEWIGVIWSGGKTDYNPSLKSRVTISKDTSKNQFSLKLSSVQANDTAVYYCAKYDYDDSLDYWGQGTLVTVSSGGGGSGGGGSGGGGSGGGGSDIQMTQSPSSLSASVGDRVTITCHASQNINFWLSWYQQKPGKIPKLLIYEASNLHTGVPSRFSGSGSGTRFTLTISSLQPEDIATYYCQQSHSYPLTFGCGTKLEIK | –
– | – | – | 2.79 | 0.00141 | 504000 | – | F3′-1297 (bispecific antibody, part only; not given: Fc and unrelated binding arm, not shown: another chain or arm of the molecule; a dimerising Fc or GST; small tags and cut ends) scFv: QLQLQESGPGLVKPSETLSLTCTVSGFSLTNYGLHWIRQPPGKCLEWIGVIWSGGKTDYNPSLKSRVTISKDTSKNQFSLKLSSVQANDTAVYYCAKYDYDDSLDYWGQGTLVTVSSGGGGSGGGGSGGGGSGGGGSDIQMTQSPSSLSASVGDRVTITCHASQNINFWLSWYQQKPGKAPKLLIYEASNLHTGVPSRFSGSGSGTRFTLTISSLQPEDIATYYCQQSHSYPLTFGCGTKLEIK | –
– | – | – | 1.34 | 0.00117 | 874000 | – | F3′-1296 (bispecific antibody, part only; not given: Fc and unrelated binding arm, not shown: another chain or arm of the molecule; a dimerising Fc or GST) scFv: QLQLQESGPGLVKPSETLSLTCTVSGFSLTNYGLHWIRQPPGKCLEWIGVIWSGGKTDYNPSLKSRVTISKDTSKNQFSLKLSSVQANDTAVYYCARYDYDDSLDYWGQGTLVTVSSGGGGSGGGGSGGGGSGGGGSDIQMTQSPSSLSASVGDRVTITCHASQNINFWLSWYQQKPGKIPKLLIYEASNLHTGVPSRFSGSGSGTRFTLTISSLQPEDIATYYCQQSHSYPLTFGCGTKLEIK | –
– | – | – | 2.7 | 0.0013 | 480000 | – | F3′-1304 (bispecific antibody, part only; not given: Fc and unrelated binding arm, not shown: another chain or arm of the molecule; a dimerising Fc or GST; small tags and cut ends) scFv: DIQMTQSPSSLSASVGDRVTITCHASQNINFWLSWYQQKPGKIPKLLIYEASNLHTGVPSRFSGSGSGTRFTLTISSLQPEDIATYYCQQSHSYPLTFGCGTKLEIKGGGGSGGGGSGGGGSGGGGSQLQLQESGPGLVKPSETLSLTCTVSGFSLTNYGLHWIRQPPGKCLEWIGVIWSGGKTDYNPSLKSRVTISKDTSKNQFSLKLSSVQAADTAVYYCAKYDYDDSLDYWGQGTLVTVSS | EC50 (read off the curve) [7]: 10 nM
– | – | – | 5.16 | 0.0489 | 9.48e+06 | – | F3′-1306 (bispecific antibody, part only; not given: Fc and unrelated binding arm, not shown: another chain or arm of the molecule; a dimerising Fc or GST; small tags and cut ends) scFv: DIQMTQSPSSLSASVGDRVTITCHASQNINFWLSWYQQKPGKAPKLLIYEASNLHTGVPSRFSGSGSGTRFTLTISSLQPEDIATYYCQQSHSYPLTFGCGTKLEIKGGGGSGGGGSGGGGSGGGGSQLQLQESGPGLVKPSETLSLTCTVSGFSLTNYGLHWIRQPPGKCLEWIGVIWSGGKTDYNPSLKSRVTISKDTSKNQFSLKLSSVQANDTAVYYCAKYDYDDSLDYWGQGTLVTVSS | –
0.4 | 0.7 | 372 | 1.4 | 0.00101 | 726000 | 8020 | AB0185 (bispecific antibody, part only; not given: Fc, unrelated binder arm, linkers, not shown: another chain or arm of the molecule; a dimerising Fc or GST; small tags and cut ends) scFv: DIQMTQSPSSLSASVGDRVTITCKASQDIYNYLSWFQQKPGKAPKPLIYRANILVSGVPSRFSGSGSGQDYTFTISSLQPEDIATYYCLQFDAFPFTFGCGTKLEIKGGGGSGGGGSGGGGSGGGGSEVQLVESGGGVVQPGGSLRLSCAASGFTFNSFGMHWVRQAPGKCLEWVAFISSGSTSIYYANTVKGRFTISRDNSKNTLYLQMNSLRAEDTAVYYCARDGYPTGGAMDYWGQGTSVTVSS | –
0.5 | 0.7 | 412 | 1.04 | 0.00117 | 1.12e+06 | 8160 | AB0186 (bispecific antibody, part only; not given: Fc, unrelated binder arm, linkers, not shown: another chain or arm of the molecule; a dimerising Fc or GST; small tags and cut ends) scFv: DIQMTQSPSSLSASVGDRVTITCKASQDIYNYLSWFQQKPGKAPKPLIYRANILVSGVPSRFSGSGSGQDYTFTISSLQPEDIATYYCLQFDAFPFTFGCGTKLEIKGGGGSGGGGSGGGGSGGGGSEVQLVESGGGVVQPGGSLRLSCAASGFTFNAFGMHWVRQAPGKCLEWVAFISSGSTSIYYANTVKGRFTISRDNSKNTLYLQMNSLRAEDTAVYYCARDGYPTGGAMDYWGQGTSVTVSS | –
0.7 | 1.3 | 420 | 1.21 | 0.00127 | 1.04e+06 | 8760 | AB0189 (bispecific antibody, part only; not given: Fc, unrelated binder arm, linkers, not shown: another chain or arm of the molecule; a dimerising Fc or GST; small tags and cut ends) scFv: DIKMTQSPSSLSASVGDRVTITCKASQDIYNYLSWFQQKPGKAPKPLIYRANILVSGVPSRFSGSGSGQDYTLTISSLQPEDIATYYCLQFDAFPFTFGCGTKLEIKGGGGSGGGGSGGGGSGGGGSEVQLVESGGGVVQPGGSLRLSCAASGFTFNAFGMHWVRQAPGKCLEWVAFISSGSTSIYYANTVKGRFTISRDNSKNTLYLQMNSLRAEDTAVYYCARDGYPTGGAMDYWGQGTSVTVSS | –
– | – | – | 1.58 | 0.000901 | 569000 | – | AB0188 (bispecific antibody, part only; not given: Fc, unrelated binder arm, linkers, not shown: another chain or arm of the molecule; a dimerising Fc or GST; small tags and cut ends) scFv: DIKMTQSPSSLSASVGDRVTITCKASQDIYNYLSWFQQKPGKAPKPLIYRANILVSGVPSRFSGSGSGQDYTLTISSLQPEDIATYYCLQFDAFPFTFGCGTKLEIKGGGGSGGGGSGGGGSGGGGSEVQLVESGGGVVQPGGSLRLSCAASGFTFNSFGMHWVRQAPGKCLEWVAFISSGSTSIYYANTVKGRFTISRDNSKNTLYLQMNSLRAEDTAVYYCARDGYPTGGAMDYWGQGTSVTVSS | –
– | – | – | – | – | – | – | 15A10 hybridoma supernatant antibody (antibody, from a related filing, V domains shown) VH: EVQLQESGAELVRSGASIKLSCAASAFNIKDYFIHWVRQRPDQGLEWIGWIDPENDDTEYAPKFQDKATMTADTSSNTAYLQLSSLTSADTAVYYCNALWSRGGYFDYWGQGTTLTVSS VL: EVLLTQSPAIIAASPGEKVTITCSARSSVSYMSWYQQKPGSSPKIWIYGISKLASGVPARFSGSGSGTYFSFTINNLEAEDVATYYCQQRSYYPFTFGSGTKLEIK | Cell Binding MFI [3]: 83.8 MFI; Kd [8]: 15.8 nM; koff [8]: 0.00223 s⁻¹; Cell Binding MFI [4]: 167 MFI; Cell Binding MFI [5]: 372 MFI
– | – | – | – | – | – | – | Murine F3′-9F11 (bispecific antibody, part only; not given: format, linker, Fc, other arm, V domains shown, not shown: a dimerising Fc or GST) VH: EVQLQESGGGLVQPGGSRKLSCAASGFTFNSFGMHWVRQAPEKGLEWVAFISSGSTSIYYANTVKGRFTISRDNPKNTLFLQMTSLRSEDTAMYYCARDGYPTGGAMDYWGQGTSVTVSS VL: DIKMTQSPSSMYASLGERVTITCKASQDIYNYLSWFQLKPGKSPRPLIYRANILVSGVPSKFSGSGSGQDYSLTINSLEYEDLGIYYCLQFDAFPFTFGSGTKLEIK | Kd [9]: 0.96 nM; koff [9]: 0.00111 s⁻¹; kon [9]: 1.15e+06 M⁻¹ s⁻¹; Kd [10]: 0.62 nM; koff [10]: 0.00098 s⁻¹; kon [10]: 1.58e+06 M⁻¹ s⁻¹; Kd [11]: 0.34 nM; koff [11]: 0.000374 s⁻¹; kon [11]: 1.11e+06 M⁻¹ s⁻¹
